Consider two molecules from paper PMC5437307 (2017).

One assay concerns the target IL-2Rβγc (Homo sapiens) (UniProt P14784). The following applies: cited from earlier work.
The target in assay [1] is T1, F42A mutant (IL-2-Fc format) (human, UniProt P60568 21-153, F42A). The experiment in a line: SPR. In general terms: In SPR one partner is held on a chip, and binding of the other changes the refractive index at the surface.
Assay [2] deals with T1, F42A mutant (IL-2-Fc format). The experiment in a line: SPR. This is another data set of the same source.

Where “and” joins values, the source holds several entries; their conditions need not be identical. Identical values can stand only once.

IL-2Rβγc (Homo sapiens), sequence (P14784 27-240, chain 1 of 2): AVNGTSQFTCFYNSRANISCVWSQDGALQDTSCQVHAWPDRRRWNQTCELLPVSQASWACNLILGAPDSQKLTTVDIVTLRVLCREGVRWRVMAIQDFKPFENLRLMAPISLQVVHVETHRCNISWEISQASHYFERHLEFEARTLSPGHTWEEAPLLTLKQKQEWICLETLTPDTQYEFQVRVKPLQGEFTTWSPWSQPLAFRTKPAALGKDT
IL-2Rβγc (Homo sapiens), sequence (P31785 23-262, chain 2 of 2, further chain): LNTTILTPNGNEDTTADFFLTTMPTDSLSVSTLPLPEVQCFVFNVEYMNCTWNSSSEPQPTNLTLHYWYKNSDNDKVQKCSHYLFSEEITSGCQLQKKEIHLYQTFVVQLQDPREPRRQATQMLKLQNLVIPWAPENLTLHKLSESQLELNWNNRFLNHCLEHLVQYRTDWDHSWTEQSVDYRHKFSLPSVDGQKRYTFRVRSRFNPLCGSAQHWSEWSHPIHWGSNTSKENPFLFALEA

What is called Kd is the concentration at which binding is half-saturated. For the molecule IL-2 (from UniProt P60568), in the assay with IL-2Rβγc (Homo sapiens), the dissociation constant Kd was 1 nM.

B1: hCD25-His (receptor)
chain: ELCDDDPPEIPHATFKAMAYKEGTMLNCECKRGFRRIKSGSLYMLCTGNSSHSSWDNQCQCTSSATRNTTKQVTPQPEEQKERKTTEMQSPMQPVDQASLPGHCREPPPWENEATERIYHFVVGQMVYYQCVQGYRALHRGPAESVCKMTHGKTRWTQPQLICTGEMETSQFPGEEKPQASPEGRPESETSCLVTTTDFQIQTEMAATMETSIFTTEYQ
The koff is the rate constant with which the complex falls apart. Low readings indicate a long-lived complex, high ones a short-lived complex. For the molecule B1, the dissociation constant Kd in assay [1] is 1080 nM and 1100 nM. For the same molecule, the off-rate constant (koff) in assay [2] turned out to be 0.325 s⁻¹.
